Data: patent US20130071381A1 (Takeda / Millennium, published 2013)
Where “and” joins values, the source holds several entries; their conditions need not be identical. Equal entries are not always repeated.

How the values were obtained:
[1] = target: T1, human CC-chemokine receptor 2 (CCR2), endogenous on THP-1 cells, THP-1 membranes and human blood cells (human, UniProt P41597 1-374); assay: competition with 0.1 nM [125I]MCP-1 on fresh PBMC, filtration and scintillation counting
T1 construct: whole, on cells; The isoform is not specified for THP-1 cells or PBMC; also called CKR-2; MCP-1RA
Protocol: (§1) MCP-1 binding was performed in a final volume of 0.1 ml of 50 mM Hepes pH 7.4, 1 mM CaCl₂, 5 mM MgCl₂, 0.02% sodium azide, 0.5% BSA (HBB), containing either 2.5 μg THP-1 membrane protein or 500,000 PBMC and 0.1 nM of [¹²⁵I]-MCP-1. Competition binding experiments were performed by including variable concentrations of unlabeled MCP-1, 1D9 antibody, or a negative control IgG2a. Nonspecific binding was determined following the addition of a 2500-fold excess of unlabeled MCP-1. Samples were incubated for 60 minutes at room temperature, and bound and free tracer were separated by filtration through 96-well GF/B filterplates presoaked in 0.3% polyethyleneimine. The filters were washed in HBB further supplemented with 0.5 M NaCl, dried, and the amount of bound radioactivity determined by liquid scintillation counting. mAb 1D9 inhibits [¹²⁵I]MCP-1 binding to THP-1 cell membranes with an IC₅₀ of about 0.004 μg/ml (approximately 0.02 nM; FIG. 4) and to fresh PBMC with an IC₅₀ of 0.04 μg/ml (approximately 0.2 nM; FIG. 5).

[2] = target: T2, CCR5 expressed on L1/2 transfectants (UniProt P51681 1-352, limits assumed); assay: flow cytometry on L1/2 transfectants, hybridoma supernatant
T2 construct: whole, on cells; also called CCR5 transfectants
Protocol: (§2) For the staining of cultured transfectant cell lines 0.5×10⁶ cells in 50 μl were resuspended in PBS+1% FCS in a 96 well polystyrene V-bottom plate. 50 μl of primary antibody supernatants or HT medium (negative control) were added, and the samples were incubated at 4° C. for 30 min. 100 μl of PBS were added and the cells were pelleted by centrifugation and washed once with PBS. The pellet was resuspended in 100 μl PBS+1% FCS containing FITC-conjugated goat anti-mouse IgG antibody (a 1:250 dilution) and incubated for thirty minutes at […] in the dark. The cells were washed twice with PBS, resuspended in PBS, and analyzed by flow cytometry with a FacScan cytometer using the CellQuest software (Becton-Dickenson) Cells were fixed with PBS/1% formaldehyde if they were not to be analyzed the same day. Monoclonal antibodies 1D9 and 8G2 stain CCR2 transfectants but not CCR1 or CCR5 transfectants (FIGS. 1A-10).

[3] = target: T3, CCR1 expressed on L1/2 transfectants (UniProt P32246 1-355, limits assumed); assay: as above
T3 construct: whole, on cells; also called CCR1 transfectants
T3 sequence (looked up): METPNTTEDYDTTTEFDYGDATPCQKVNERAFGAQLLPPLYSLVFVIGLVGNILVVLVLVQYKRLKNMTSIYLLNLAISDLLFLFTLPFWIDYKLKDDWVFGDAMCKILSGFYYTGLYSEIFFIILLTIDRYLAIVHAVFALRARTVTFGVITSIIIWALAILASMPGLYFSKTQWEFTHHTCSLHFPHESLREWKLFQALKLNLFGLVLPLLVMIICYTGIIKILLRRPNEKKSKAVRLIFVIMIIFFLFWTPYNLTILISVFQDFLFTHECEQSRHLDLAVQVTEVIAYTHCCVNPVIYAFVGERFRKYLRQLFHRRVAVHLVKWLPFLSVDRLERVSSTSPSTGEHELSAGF
Protocol: as §2

[4] = target: T1, human CC-chemokine receptor 2 (CCR2), …; assay: competition with 0.1 nM [125I]MCP-1 on THP-1 cell membranes, filtration and scintillation counting
Protocol: FIG. 4 illustrates that mAb 1D9 inhibits [¹²⁵I]MCP-1 binding to THP-1 cell membranes. 3.0 μg of THP-1 membrane protein was incubated with 0.1 nM [¹²⁵I]MCP-1 in the presence of various concentrations of 1D9 or the isotype-matched anti-CXCR3 antibody 1C6. The amount of bound tracer was determined by separation of free from bound by filtration and scintillation counting. The data was analyzed to determine the IC₅₀ value by non-linear regression using a 4-parameter logistic equation with KaleidaGraph software.
as §1, with “Samples were incubated for 60 minutes at room temperature, and bound and free tracer were separated by filtration through 96-well GF/B filterplates presoaked in 0.3% polyethyleneimine.” left out

T1 sequence (P41597 whole entry, canonical isoform): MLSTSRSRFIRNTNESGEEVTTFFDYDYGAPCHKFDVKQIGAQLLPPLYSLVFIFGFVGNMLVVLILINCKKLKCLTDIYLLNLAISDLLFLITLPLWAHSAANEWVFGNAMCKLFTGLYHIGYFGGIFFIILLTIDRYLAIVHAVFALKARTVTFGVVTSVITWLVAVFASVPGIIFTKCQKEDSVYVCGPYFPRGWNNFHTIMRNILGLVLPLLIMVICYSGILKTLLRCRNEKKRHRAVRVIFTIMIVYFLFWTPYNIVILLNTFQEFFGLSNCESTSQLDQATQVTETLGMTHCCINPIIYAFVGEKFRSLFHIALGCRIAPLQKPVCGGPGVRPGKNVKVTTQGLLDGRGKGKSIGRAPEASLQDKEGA
T2 sequence (P51681 whole entry): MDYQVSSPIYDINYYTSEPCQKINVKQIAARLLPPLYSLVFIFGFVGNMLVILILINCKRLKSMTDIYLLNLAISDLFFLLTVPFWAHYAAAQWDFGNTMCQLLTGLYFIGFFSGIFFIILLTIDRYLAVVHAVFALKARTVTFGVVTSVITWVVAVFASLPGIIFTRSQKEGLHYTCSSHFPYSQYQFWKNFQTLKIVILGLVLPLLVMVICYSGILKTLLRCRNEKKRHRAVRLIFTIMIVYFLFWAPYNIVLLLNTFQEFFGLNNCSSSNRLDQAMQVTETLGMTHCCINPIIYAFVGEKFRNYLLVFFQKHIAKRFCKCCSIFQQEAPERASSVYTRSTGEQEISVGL

IC50 [1]: 0.04 µg/mL and ~0.2 nM
binding result [2]: no binding
binding result [3]: no binding
IC50 [4]: ~0.004 µg/mL and ~0.02 nM
B1: murine monoclonal antibody LS132.1D9 (antibody, V domains shown)
VH: EVQLVESGGGLVQPKGSLKLSCAASGFSFNAYAMNWVRQAPGKGLEWVARIRTKNNNYATYYADSVKDRYTISRDDSESMLFLQMNNLKTEDTAMYYCVTFYGNGVWGTGTTVTVSS
VL: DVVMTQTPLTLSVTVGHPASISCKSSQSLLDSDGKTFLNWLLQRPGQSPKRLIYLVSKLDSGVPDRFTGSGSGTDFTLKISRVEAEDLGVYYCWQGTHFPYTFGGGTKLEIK
notes: Whole murine monoclonal antibody from hybridoma ATCC HB-12549, with a kappa light chain; The controls are called isotype-matched or murine IgG2a, which implies IgG2a; It was used as hybridoma supernatant in the FACS staining; also called mAb 1D9; mus-1D9
